Laboratory results from patent publication US20150023979A1 (VALDOSPAN, published 2015).

How the values were obtained:
[1] = target: T1, HPV35 E7 protein, recombinant (His-TEV-E7 fusion from E. coli) (Human Papilloma Virus type 35 (HPV35), UniProt P27230 1-99, CKII phosphorylation of the consensus site serines in the antigen preparation of Example 2); assay: ELISA and dot-blot, semiquantitative crossreactivity
T1 construct: mature; also called VE7_HPV35; not shown: N-terminal 6x Histidine tag and TEV cleavage site of the vector
T1 sequence: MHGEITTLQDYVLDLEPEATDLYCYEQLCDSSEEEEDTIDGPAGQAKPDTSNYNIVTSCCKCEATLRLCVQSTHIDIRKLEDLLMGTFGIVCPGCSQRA

[2] = target: T2, HPV56 E7 protein, recombinant (His-TEV-E7 fusion from E. coli) (Human Papilloma Virus type 56 (HPV56), UniProt P36833 1-105, CKII phosphorylation of the consensus site serines in the antigen preparation of Example 2); assay: as above
T2 construct: mature; also called VE7_HPV56; not shown: N-terminal 6x Histidine tag and TEV cleavage site of the vector
T2 sequence: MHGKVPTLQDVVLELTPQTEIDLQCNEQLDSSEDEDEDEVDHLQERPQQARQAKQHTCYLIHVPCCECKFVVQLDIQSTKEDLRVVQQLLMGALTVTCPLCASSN

[3] = target: T3, HPV18 E7 protein, recombinant (His-TEV-E7 fusion from E. coli) (Human Papilloma Virus type 18 (HPV18), UniProt P06788 1-105, CKII phosphorylation of the consensus site serines in the antigen preparation of Example 2; biotin on primary amines in the SPR assay); assay: as above
T3 construct: mature; also called VE7_HPV18; not shown: N-terminal 6x Histidine tag and TEV cleavage site of the vector
T3 sequence: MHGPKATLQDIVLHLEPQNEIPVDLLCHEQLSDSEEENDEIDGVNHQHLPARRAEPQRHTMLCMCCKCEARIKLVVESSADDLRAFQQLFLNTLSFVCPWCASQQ

[4] = target: T4, HPV51 E7 protein, recombinant (His-TEV-E7 fusion from E. coli) (Human Papilloma Virus type 51 (HPV51), UniProt P26558 1-101, CKII phosphorylation of the consensus site serines in the antigen preparation of Example 2); assay: as above
T4 construct: mature; also called VE7_HPV51; not shown: N-terminal 6x Histidine tag and TEV cleavage site of the vector
T4 sequence: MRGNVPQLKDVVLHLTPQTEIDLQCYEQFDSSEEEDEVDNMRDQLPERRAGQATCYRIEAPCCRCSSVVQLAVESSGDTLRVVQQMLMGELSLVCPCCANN

[5] = target: T5, HPV45 E7 protein, recombinant (His-TEV-E7 fusion from E. coli) (Human Papilloma Virus type 45 (HPV45), UniProt P21736 1-106, CKII phosphorylation of the consensus site serines in the antigen preparation of Example 2; biotin on primary amines in the SPR assay); assay: as above
T5 construct: mature; also called VE7_HPV45; not shown: N-terminal 6x Histidine tag and TEV cleavage site of the vector
T5 sequence: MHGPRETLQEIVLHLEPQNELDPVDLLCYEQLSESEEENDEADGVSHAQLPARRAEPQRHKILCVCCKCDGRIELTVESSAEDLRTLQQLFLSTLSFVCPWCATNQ

[6] = target: T6, HPV31 E7 protein, recombinant (His-TEV-E7 fusion from E. coli) (Human Papilloma Virus type 31 (HPV31), UniProt P17387 1-98, CKII phosphorylation of the consensus site serines in the antigen preparation of Example 2); assay: ELISA and dot-blot, semiquantitative crossreactivity (++ strong positive)
T6 construct: mature; also called VE7_HPV31; not shown: N-terminal 6x Histidine tag and TEV cleavage site of the vector
T6 sequence: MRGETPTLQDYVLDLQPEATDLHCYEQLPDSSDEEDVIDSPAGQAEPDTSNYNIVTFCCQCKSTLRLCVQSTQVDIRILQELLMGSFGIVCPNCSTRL

[7] = target: T7, HPV33 E7 protein, recombinant (His-TEV-E7 fusion from E. coli) (Human Papilloma Virus type 33 (HPV33), UniProt P06429 1-97, CKII phosphorylation of the consensus site serines in the antigen preparation of Example 2; biotin on primary amines in the SPR assay); assay: as above
T7 construct: mature; also called VE7_HPV33; not shown: N-terminal 6x Histidine tag and TEV cleavage site of the vector
T7 sequence: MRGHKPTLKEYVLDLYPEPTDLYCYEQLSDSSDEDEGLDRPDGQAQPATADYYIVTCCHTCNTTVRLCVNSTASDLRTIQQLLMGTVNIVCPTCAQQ

[8] = target: T8, HPV58 E7 protein, recombinant (His-TEV-E7 fusion from E. coli) (Human Papilloma Virus type 58 (HPV58), UniProt P26557 1-98, CKII phosphorylation of the consensus site serines in the antigen preparation of Example 2); assay: as above
T8 construct: mature; also called VE7_HPV58; not shown: N-terminal 6x Histidine tag and TEV cleavage site of the vector
T8 sequence: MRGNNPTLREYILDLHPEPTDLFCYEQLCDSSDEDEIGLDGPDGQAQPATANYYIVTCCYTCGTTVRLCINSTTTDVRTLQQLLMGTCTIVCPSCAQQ

[9] = target: T9, HPV52 E7 protein, recombinant (His-TEV-E7 fusion from E. coli) (Human Papilloma Virus type 52 (HPV52), UniProt P36831 1-99, CKII phosphorylation of the consensus site serines in the antigen preparation of Example 2); assay: as above
T9 construct: mature; also called VE7_HPV52; not shown: N-terminal 6x Histidine tag and TEV cleavage site of the vector
T9 sequence: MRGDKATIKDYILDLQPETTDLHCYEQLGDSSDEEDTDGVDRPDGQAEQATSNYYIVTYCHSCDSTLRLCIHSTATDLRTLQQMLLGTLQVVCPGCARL

[10] = target: T10, HPV6 E7 protein (low risk type), recombinant (His-TEV-E7 fusion from E. coli) (Human Papilloma Virus type 6 (HPV6), UniProt Q84292 1-98); assay: ELISA and dot-blot
T10 construct: mature; the only HPV6 entry in the list of constructs is VE7_HPV6A; also called VE7_HPV6A; not shown: N-terminal 6x Histidine tag and TEV cleavage site of the vector
T10 sequence: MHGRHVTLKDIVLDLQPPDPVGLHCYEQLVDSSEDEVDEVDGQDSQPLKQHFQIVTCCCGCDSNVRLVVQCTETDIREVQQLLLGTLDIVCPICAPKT

[11] = target: T11, HPV38 E7 protein (beta-papillomavirus), recombinant (His-TEV-E7 fusion from E. coli) (Human Papilloma Virus type 38 (HPV38), UniProt Q80908 1-100); assay: ELISA and dot-blot
T11 construct: mature; also called HPVE7 38; VE7_HPV38; not shown: N-terminal 6x Histidine tag and TEV cleavage site of the vector
T11 sequence: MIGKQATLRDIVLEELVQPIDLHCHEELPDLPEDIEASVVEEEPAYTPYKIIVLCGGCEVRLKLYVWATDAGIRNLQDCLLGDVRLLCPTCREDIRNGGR

[12] = target: T12, HPV11 E7 protein (low risk type), recombinant (His-TEV-E7 fusion from E. coli) (Human Papilloma Virus type 11 (HPV11), UniProt P04020 1-98); assay: ELISA and dot-blot
T12 construct: mature; also called VE7_HPV11; not shown: N-terminal 6x Histidine tag and TEV cleavage site of the vector
T12 sequence: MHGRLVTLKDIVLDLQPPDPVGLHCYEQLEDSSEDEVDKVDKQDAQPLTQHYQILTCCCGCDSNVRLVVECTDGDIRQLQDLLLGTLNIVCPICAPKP

[13] = target: T13, HPV5 E7 protein (beta-papillomavirus), recombinant (His-TEV-E7 fusion from E. coli) (Human Papilloma Virus type 5 (HPV5), UniProt P06932 1-103); assay: ELISA and dot-blot
T13 construct: mature; also called VE7_HPV05; not shown: N-terminal 6x Histidine tag and TEV cleavage site of the vector
T13 sequence: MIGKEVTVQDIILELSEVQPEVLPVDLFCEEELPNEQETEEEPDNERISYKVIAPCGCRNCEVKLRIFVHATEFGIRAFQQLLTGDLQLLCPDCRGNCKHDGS

[14] = target: T1, HPV35 E7 protein, recombinant …; assay: ELISA and dot-blot, semiquantitative crossreactivity (++ strong positive); antigens denatured for this antibody
[15] = target: T8, HPV58 E7 protein, recombinant …; assay: as above
[16] = target: T9, HPV52 E7 protein, recombinant …; assay: as above
[17] = target: T2, HPV56 E7 protein, recombinant …; assay: ELISA and dot-blot, semiquantitative crossreactivity; antigens denatured for this antibody
[18] = target: T3, HPV18 E7 protein, recombinant …; assay: as above
[19] = target: T4, HPV51 E7 protein, recombinant …; assay: as above
[20] = target: T5, HPV45 E7 protein, recombinant …; assay: as above

B1: ACAB167 (antibody, V domains shown)
VH: EVQLEESGGGLVQPKGSLKLSCTASGFPFNTYAMNWVRQAPGKGLEWVARIRTKSNNYATYYADSVKDRFTISRDDSQNMLYLQMNNLKTEDTAMYYCVRLYGYYFDYWGQGTTLTVSS
VL: DIVMTQSPEIMSASPGEKVTMTCSASSSVSFMFWYQQKSGTSPKIWIYDTSKLASGVPARFSGSGSGTSYSLTVSSMEAEDAATYYCQQWNSNPPTFGVGTKLELKR
notes: the printed entries run on into the first residues of the constant domains; also called HPV16E7 IgG2b antibody ACAB167
B1: no binding [1]; no binding [2]; no binding [3]. B1: no binding [4]; no binding [5]; binds [6]. B1: binds [7]; binds [8]; binds [9]. B1: no binding [10]; no binding [11]; no binding [12]. B1: no binding [13].

B2: ACAB337 (antibody, IgG1, V domains shown)
VH: DVQLQESGPGLVKPSQSLSLTCTVTGHSITSDYAWNWIRQFPGNKLEWVAYISYSGGTGYNPSLKSRISITRDTSKPNQFFLQLNSVTTEDTATYYCACGDYYYGPRDYWGQGTSVTVSS
VL: DILLTQSPAILSVSPGERVSFSCRASQSIGTSIHWYQQRTNGSPRLLIKYASESISGIPSRFSGSGSGTDFTLSINSVESEDIADYYCQQSNYWPFTFGSGTKLEIKR
notes: also called HPV33E7 IgG1 antibody ACAB337
B2: binds [14]; binds [15]; binds [16]. B2: no binding [17]; no binding [18]; no binding [19]. B2: no binding [20]; no binding [10]; no binding [11]. B2: no binding [12]; no binding [13].
